For the series the following is noted: Homo sapiens, pH 4.2, 20 °C, Urea, CD, sodium acetate 2 mM, whole UniProt chain shown.

Values joined by “and” are separate entries in the source; they are usually repeats but may differ in a detail not shown here. Equal values may be shown once.

B1: Alpha-lactalbumin wild type, P00709 (protein)
chain: MRFFVPLFLVGILFPAILAKQFTKCELSQLLKDIDGYGGIALPELICTMFHTSGYDTQAIVENNESTEYGLFQISNKLWCKSSQVPQSRNICDISCDKFLDDDITDDIMCAKKILDIKGIDYWLAHKALCTEKLEQWLCEKL
As to B1, the denaturant m value was 0.88 kcal/mol/M and 0.67 kcal/mol/M (Na2SO4 20 mM); 0.58 kcal/mol/M (NaCl 30 mM). In addition, the “denaturant midpoint (higher = more stable)” value is, setting by setting: (Na2SO4 20 mM) 4.34 M and 5.85 M; (NaCl 30 mM) 5.43 M; (NaClO4 50 mM) 4.62 M and 6.06 M.
